According to patent US10941182 (Amgen, dated 2021):
Starred links: 1 amine or outer side, 2 acyl side, 3 side chain; linkers in the order of their positions; H or OH if unused. Non-standard residues stand in square brackets, D forms with d. *: point of attachment. AC4Abu = α-carboxy-4-aminobutyric acid, O=C(C(CCN[*:1])C(=O)[*:3])[*:2]; dBip = N[C@H](Cc1ccc(-c2ccccc2)cc1)C(=O)O; Oic = O=C(O)[C@@H]1C[C@@H]2CCCC[C@@H]2N1; Phe(4-Cl) = N[C@@H](Cc1ccc(Cl)cc1)C(=O)O; dPhe(4-Cl) = N[C@H](Cc1ccc(Cl)cc1)C(=O)O; Heptadecanoyl = CCCCCCCCCCCCCCCCC(=O)*; Phe(4-I) = N[C@@H](Cc1ccc(I)cc1)C(=O)O; γGlu = O=C(O)[C@H](CCC(=O)[*:2])N[*:1]; C12 diacid = O=C(O)CCCCCCCCCCC(=O)*; NMeR = CN[C@@H](CCCNC(=N)N)C(=O)O; hArg = N=C(N)NCCCC[C@H](N)C(=O)O; Cha = N[C@@H](CC1CCCCC1)C(=O)O; NMeL = CN[C@@H](CC(C)C)C(=O)O; Nle = CCCC[C@H](N)C(=O)O; Hexanoyl = CCCCCC(=O)*; AEEA = NCCOCCOCC(=O)O; Aib = CC(C)(N)C(=O)O; Mpa = O=C(O)CCS

T1: rat APJ receptor (rat, UniProt Q9JHG3 1-377)
T1 sequence (looked up): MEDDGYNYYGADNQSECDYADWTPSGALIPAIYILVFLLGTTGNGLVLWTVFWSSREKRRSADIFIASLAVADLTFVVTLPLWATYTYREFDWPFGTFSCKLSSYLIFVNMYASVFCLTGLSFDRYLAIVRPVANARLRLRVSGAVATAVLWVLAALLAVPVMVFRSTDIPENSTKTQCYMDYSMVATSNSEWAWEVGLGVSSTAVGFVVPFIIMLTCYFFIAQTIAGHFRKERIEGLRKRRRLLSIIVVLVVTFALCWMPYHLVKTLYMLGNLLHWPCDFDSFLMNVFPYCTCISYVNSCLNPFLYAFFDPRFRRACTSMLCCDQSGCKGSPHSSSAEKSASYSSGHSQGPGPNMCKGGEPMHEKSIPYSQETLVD

T2: human APJ receptor (human, UniProt P35414 1-380)
T2 sequence (looked up): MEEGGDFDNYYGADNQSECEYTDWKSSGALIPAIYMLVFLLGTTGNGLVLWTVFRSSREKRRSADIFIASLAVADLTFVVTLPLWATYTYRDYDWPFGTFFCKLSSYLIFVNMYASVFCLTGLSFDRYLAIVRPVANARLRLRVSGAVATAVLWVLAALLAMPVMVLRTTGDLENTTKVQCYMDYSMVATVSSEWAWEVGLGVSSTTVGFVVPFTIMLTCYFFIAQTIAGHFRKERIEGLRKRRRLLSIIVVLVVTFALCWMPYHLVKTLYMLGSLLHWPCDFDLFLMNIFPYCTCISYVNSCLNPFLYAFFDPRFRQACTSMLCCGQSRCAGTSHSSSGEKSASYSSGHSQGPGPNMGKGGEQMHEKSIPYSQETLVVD

B1: SEQ ID NO: 114 (peptide)
peptide: QRPRLSHKGPXPF
modifications: {H2}[MerPr](10K mPEG acetamide)QR[aMePro][hArg][aMeLeu]SHKGP[Nle]P[4-Cl-F]{COOH}
B2: SEQ ID NO: 576 (peptide)
peptide: Heptadecanoyl-[AC4Abu][AEEA][AEEA][dQ]RP[NMeR][Cha]SHKG[Oic][Nle]P[dPhe(4-Cl)]-OH
SMILES: CCCCCCCCCCCCCCCCC(=O)NCCC(C(=O)O)C(=O)NCCOCCOCC(=O)NCCOCCOCC(=O)N[C@H](CCC(N)=O)C(=O)N[C@@H](CCCNC(=N)N)C(=O)N1CCC[C@H]1C(=O)N(C)[C@@H](CCCNC(=N)N)C(=O)N[C@@H](CC1CCCCC1)C(=O)N[C@@H](CO)C(=O)N[C@@H](Cc1c[nH]cn1)C(=O)N[C@@H](CCCCN)C(=O)NCC(=O)N1[C@H](C(=O)N[C@@H](CCCC)C(=O)N2CCC[C@H]2C(=O)N[C@H](Cc2ccc(Cl)cc2)C(=O)O)C[C@@H]2CCCC[C@@H]21
B3: SEQ ID NO: 116 (peptide)
peptide: QRPRLSHKGPXPF
modifications: {H2}[MerPr](10K mPEG acetamide)Q[NMehArg]P[NMeArg][aMeLeu]SHKGP[Nle]P[4-Cl-F]{COOH}
B4: SEQ ID NO: 63 (peptide)
peptide: Ac-RQRPR[Cha]SHKGP[Nle]P[Phe(4-Cl)]-OH
SMILES: CCCC[C@H](NC(=O)[C@@H]1CCCN1C(=O)CNC(=O)[C@H](CCCCN)NC(=O)[C@H](Cc1c[nH]cn1)NC(=O)[C@H](CO)NC(=O)[C@H](CC1CCCCC1)NC(=O)[C@H](CCCNC(=N)N)NC(=O)[C@@H]1CCCN1C(=O)[C@H](CCCNC(=N)N)NC(=O)[C@H](CCC(N)=O)NC(=O)[C@H](CCCNC(=N)N)NC(C)=O)C(=O)N1CCC[C@H]1C(=O)N[C@@H](Cc1ccc(Cl)cc1)C(=O)O
B5: SEQ ID NO: 506 (peptide)
peptide: Hexanoyl-[γGlu][AEEA][AEEA][AEEA][hArg]Q[hArg]P[NMeR][Cha]SHKG[Oic][Nle]P[Phe(4-Cl)]-OH
SMILES: CCCCCC(=O)N[C@@H](CCC(=O)NCCOCCOCC(=O)NCCOCCOCC(=O)NCCOCCOCC(=O)N[C@@H](CCCCNC(=N)N)C(=O)N[C@@H](CCC(N)=O)C(=O)N[C@@H](CCCCNC(=N)N)C(=O)N1CCC[C@H]1C(=O)N(C)[C@@H](CCCNC(=N)N)C(=O)N[C@@H](CC1CCCCC1)C(=O)N[C@@H](CO)C(=O)N[C@@H](Cc1c[nH]cn1)C(=O)N[C@@H](CCCCN)C(=O)NCC(=O)N1[C@H](C(=O)N[C@@H](CCCC)C(=O)N2CCC[C@H]2C(=O)N[C@@H](Cc2ccc(Cl)cc2)C(=O)O)C[C@@H]2CCCC[C@@H]21)C(=O)O
B6: SEQ ID NO: 64 (peptide)
peptide: Ac-RQRPR[NMeL]SHKGP[Nle]P[Phe(4-Cl)]-OH
SMILES: CCCC[C@H](NC(=O)[C@@H]1CCCN1C(=O)CNC(=O)[C@H](CCCCN)NC(=O)[C@H](Cc1c[nH]cn1)NC(=O)[C@H](CO)NC(=O)[C@H](CC(C)C)N(C)C(=O)[C@H](CCCNC(=N)N)NC(=O)[C@@H]1CCCN1C(=O)[C@H](CCCNC(=N)N)NC(=O)[C@H](CCC(N)=O)NC(=O)[C@H](CCCNC(=N)N)NC(C)=O)C(=O)N1CCC[C@H]1C(=O)N[C@@H](Cc1ccc(Cl)cc1)C(=O)O
B7: SEQ ID NO: 112 (peptide)
peptide: QRPRLSHKGPXPF
modifications: {H2}[MerPr](10K mPEG acetamide)Q[hArg]P[NMeArg][aMeLeu]SHKGP[Nle]P[4-Cl-F]{COOH}
B8: SEQ ID NO: 65 (peptide)
peptide: Ac-RQRP[NMeR]LSHKGP[Nle]P[Phe(4-Cl)]-OH
SMILES: CCCC[C@H](NC(=O)[C@@H]1CCCN1C(=O)CNC(=O)[C@H](CCCCN)NC(=O)[C@H](Cc1c[nH]cn1)NC(=O)[C@H](CO)NC(=O)[C@H](CC(C)C)NC(=O)[C@H](CCCNC(=N)N)N(C)C(=O)[C@@H]1CCCN1C(=O)[C@H](CCCNC(=N)N)NC(=O)[C@H](CCC(N)=O)NC(=O)[C@H](CCCNC(=N)N)NC(C)=O)C(=O)N1CCC[C@H]1C(=O)N[C@@H](Cc1ccc(Cl)cc1)C(=O)O
B9: SEQ ID NO: 94 (peptide)
peptide: SDFYKRLINKAKXXRRQRPRLSHKGXFPX
modifications: {Acetyl-NH}SDFYKRLINKAK[Aeea][Aeea][hArg]rQ[hArg]Pr[NMeLeu]SHKG[Oic][pI-Phe]P[D-Bip]{COOH}
B10: SEQ ID NO: 62 (peptide)
peptide: Ac-RQRPRLSHKGP[Nle]P[dBip]-OH
SMILES: CCCC[C@H](NC(=O)[C@@H]1CCCN1C(=O)CNC(=O)[C@H](CCCCN)NC(=O)[C@H](Cc1c[nH]cn1)NC(=O)[C@H](CO)NC(=O)[C@H](CC(C)C)NC(=O)[C@H](CCCNC(=N)N)NC(=O)[C@@H]1CCCN1C(=O)[C@H](CCCNC(=N)N)NC(=O)[C@H](CCC(N)=O)NC(=O)[C@H](CCCNC(=N)N)NC(C)=O)C(=O)N1CCC[C@H]1C(=O)N[C@H](Cc1ccc(-c2ccccc2)cc1)C(=O)O
B11: SEQ ID NO: 67 (peptide)
peptide: Ac-RQRP[NMeR][NMeL]SHKGP[Nle]P[Phe(4-Cl)]-OH
SMILES: CCCC[C@H](NC(=O)[C@@H]1CCCN1C(=O)CNC(=O)[C@H](CCCCN)NC(=O)[C@H](Cc1c[nH]cn1)NC(=O)[C@H](CO)NC(=O)[C@H](CC(C)C)N(C)C(=O)[C@H](CCCNC(=N)N)N(C)C(=O)[C@@H]1CCCN1C(=O)[C@H](CCCNC(=N)N)NC(=O)[C@H](CCC(N)=O)NC(=O)[C@H](CCCNC(=N)N)NC(C)=O)C(=O)N1CCC[C@H]1C(=O)N[C@@H](Cc1ccc(Cl)cc1)C(=O)O
B12: SEQ ID NO: 349 (peptide)
peptide: {C12 diacid}-[γGlu][AEEA][AEEA]Q[hArg]P[dR][NMeL]SHKG[Oic][Phe(4-I)]P[dBip]-OH
SMILES: CC(C)C[C@@H](C(=O)N[C@@H](CO)C(=O)N[C@@H](Cc1c[nH]cn1)C(=O)N[C@@H](CCCCN)C(=O)NCC(=O)N1[C@H](C(=O)N[C@@H](Cc2ccc(I)cc2)C(=O)N2CCC[C@H]2C(=O)N[C@H](Cc2ccc(-c3ccccc3)cc2)C(=O)O)C[C@@H]2CCCC[C@@H]21)N(C)C(=O)[C@@H](CCCNC(=N)N)NC(=O)[C@@H]1CCCN1C(=O)[C@H](CCCCNC(=N)N)NC(=O)[C@H](CCC(N)=O)NC(=O)COCCOCCNC(=O)COCCOCCNC(=O)CC[C@H](NC(=O)CCCCCCCCCCC(=O)O)C(=O)O
B13: SEQ ID NO: 66 (peptide)
peptide: Ac-RQRP[NMeR][Cha]SHKGP[Nle]P[Phe(4-Cl)]-OH
SMILES: CCCC[C@H](NC(=O)[C@@H]1CCCN1C(=O)CNC(=O)[C@H](CCCCN)NC(=O)[C@H](Cc1c[nH]cn1)NC(=O)[C@H](CO)NC(=O)[C@H](CC1CCCCC1)NC(=O)[C@H](CCCNC(=N)N)N(C)C(=O)[C@@H]1CCCN1C(=O)[C@H](CCCNC(=N)N)NC(=O)[C@H](CCC(N)=O)NC(=O)[C@H](CCCNC(=N)N)NC(C)=O)C(=O)N1CCC[C@H]1C(=O)N[C@@H](Cc1ccc(Cl)cc1)C(=O)O

Key:
[1] = molecular target: T1, rat APJ receptor; assay: cell-based or functional assay
[2] = molecular target: T2, human APJ receptor; assay: cell-based or functional assay

Row | Binder | EC50 Rat APJ Receptor [1] | EC50 Human APJ Receptor [2]
1 | B1 | 3.46 nM | 0.848 nM
2 | B2 | 5.17 nM | 3.33 nM
3 | B3 | 40.8 nM | 9.71 nM
4 | B4 | 0.164 nM | 0.036 nM
5 | B5 | 13.2 nM | 3.49 nM
6 | QRPRLSHKGPXPF ({H2}[MerPr](10K mPEG acetamide)QRP[NMeArg]LSHKGP[Nle]P[4-Cl-F]{COOH}) [SEQ ID NO: 115] | 6.49 nM | 1.66 nM
7 | B6 | 0.411 nM | 0.0555 nM
8 | KLRKHNXLQRRXMPLHSRVPFP ({H2}KLRKHN[Abu]LQRR[Abu]MPLHSRVPFP{COOH}) [SEQ ID NO: 14] | 32.4 nM | 0.301 nM
9 | XXXQRPRLSHKGPXPF ({HDA}[AC4Abu][Aeea][Aeea]QRP[NMeArg]LSHKGP[Nle]P[4-Cl-F]{COOH}) [SEQ ID NO: 496] | 0.481 nM | 0.0874 nM
10 | {10K mPEG acetamide}-[Mpa]QRP[NMeR][Cha]SHKG[Oic][Nle][Aib][Phe(4-Cl)]-OH [SEQ ID NO: 120] | 258 nM | 63.2 nM
11 | B7 | 10.4 nM | 2.32 nM
12 | B8 | 0.122 nM | 0.0302 nM
13 | B9 | 1.33 nM | 1.34 nM
14 | B10 | 3.43 nM | 0.303 nM
15 | B11 | 1.4 nM | 0.185 nM
16 | XXXQRPRLSHKGPXPF ({Dodecanoyl-NH}[AC4Abu][Aeea][Aeea]QRP[NMeArg]LSHKGP[Nle]P[4-Cl-F]{COOH}) [SEQ ID NO: 591] | 1.84 nM | 0.476 nM
17 | QRPRLSHKGPXPF ({H2}[MerPr](10K mPEG acetamide)Q[hArg]P[NMehArg]LSHKGP[Nle]P[4-Cl-F]{COOH}) [SEQ ID NO: 113] | 49.3 nM | 12.1 nM
18 | B12 | 47.8 nM | 64 nM
19 | H-KFRRQRPRLSHKGPMP-OH [SEQ ID NO: 12] | 5.81 nM | 1.42 nM
20 | {mPEG 10 kDa acetamide}-[Mpa][dQ][hArg]P[NMeR][Cha]SHKG[Oic][Nle]P[dPhe(4-Cl)]-OH (numbers in words are those of the source; also: N-terminus written {H2}) [SEQ ID NO: 111] | 777 nM | 1100 nM
21 | B13 | 0.156 nM | 0.0405 nM
22 | QRPRLSHKGPXPF ({H2}[MerPr](10K mPEG acetamide)QrP[hArg][aMeLeu]SHKGP[Nle]P[4-Cl-F]{COOH}) [SEQ ID NO: 119] | 141 nM | 25.6 nM
23 | QRPRLSHKGPXPF ({H2}[MerPr](10K mPEG acetamide)QRP[hArg][aMeLeu]SHKGP[Nle]P[4-Cl-F]{COOH}) [SEQ ID NO: 117] | 117 nM | 19.7 nM
